According to patent US20240116985A1 (published 2024):
Starred links: 1 amine or outer side, 2 acyl side, 3 side chain; linkers in the order of their positions; H or OH if unused. Positions of bridges follow the written chain, without caps; N, C: chain ends. Non-standard residues stand in square brackets, D forms with d. Primed or numbered codes have the meaning given here. *: point of attachment. PyrS2″ = (S)-3-amino-1-((pent-4-en-1-yloxy)carbonyl)pyrrolidine-3-carboxylic acid (stapling residue), C=CCCCOC(=O)N1CC[C@@](N[*:1])(C(=O)[*:2])C1; B5(4) = 2,2-bis(4-pentenyl)glycine = 2-amino-2-(pent-4-en-1-yl)hept-6-enoic acid (stitching residue), C=CCCCC(CCCC=C)(N[*:1])C(=O)[*:2]; PyrS2 = (S)-3-amino-1-((pent-4-en-1-yloxy)carbonyl)pyrrolidine-3-carboxylic acid, C=CCCCOC(=O)N1CC[C@@](N[*:1])(C(=O)[*:2])C1; PyrS1 = (S)-3-amino-1-((but-3-en-1-yloxy)carbonyl)pyrrolidine-3-carboxylic acid, C=CCCOC(=O)N1CC[C@@](N[*:1])(C(=O)[*:2])C1; MorphAsn = (S)-2-amino-4-morpholino-4-oxobutanoic acid, O=C(C[C@H](N[*:1])C(=O)[*:2])N1CCOCC1; B5(3) = 2,2-bis(4-pentenyl)glycine (stitching residue), C=CCCCC(CCCC=C)(N[*:1])C(=O)[*:2]; Me2NCBz = 4-((dimethylamino)methyl)benzoyl on Lys side chain, CN(C)Cc1ccc(C(=O)*)cc1; B5 = 2-amino-2-(pent-4-en-1-yl)hept-6-enoic acid, C=CCCCC(CCCC=C)(N[*:1])C(=O)[*:2]; B6 = 2-amino-2-(hex-5-en-1-yl)oct-7-enoic acid, C=CCCCCC(CCCCC=C)(N[*:1])C(=O)[*:2]; Me2Asn = listed as N4-methyl-L-asparagine, CNC(=O)C[C@H](N[*:1])C(=O)[*:2]; MeAsn = N4-methyl-L-asparagine, CNC(=O)C[C@H](N[*:1])C(=O)[*:2]; MeGln = N5-methyl-L-glutamine, CNC(=O)CC[C@H](N[*:1])C(=O)[*:2]; Phe(3-COOH) = N[C@@H](Cc1cccc(C(=O)O)c1)C(=O)O; Phe(2-CF3) = N[C@@H](Cc1ccccc1C(F)(F)F)C(=O)O; Bta = N[C@@H](Cc1csc2ccccc12)C(=O)O; αAllylPro = C=CC[C@@]1(C(=O)O)CCCN1; tBuAla = CC(C)(C)C[C@H](N)C(=O)O; 3Thi = N[C@@H](Cc1ccsc1)C(=O)O; Cha = N[C@@H](CC1CCCCC1)C(=O)O; 4ClBztA = not defined here; Ac5c = NC1(C(=O)O)CCCC1; Ac3c = NC1(C(=O)O)CC1; Aib = CC(C)(N)C(=O)O

T1: B-cat-Halo (beta-catenin HaloTag fusion expressed in HEK293 cells) (UniProt P35222 1-781)
T1 sequence (looked up): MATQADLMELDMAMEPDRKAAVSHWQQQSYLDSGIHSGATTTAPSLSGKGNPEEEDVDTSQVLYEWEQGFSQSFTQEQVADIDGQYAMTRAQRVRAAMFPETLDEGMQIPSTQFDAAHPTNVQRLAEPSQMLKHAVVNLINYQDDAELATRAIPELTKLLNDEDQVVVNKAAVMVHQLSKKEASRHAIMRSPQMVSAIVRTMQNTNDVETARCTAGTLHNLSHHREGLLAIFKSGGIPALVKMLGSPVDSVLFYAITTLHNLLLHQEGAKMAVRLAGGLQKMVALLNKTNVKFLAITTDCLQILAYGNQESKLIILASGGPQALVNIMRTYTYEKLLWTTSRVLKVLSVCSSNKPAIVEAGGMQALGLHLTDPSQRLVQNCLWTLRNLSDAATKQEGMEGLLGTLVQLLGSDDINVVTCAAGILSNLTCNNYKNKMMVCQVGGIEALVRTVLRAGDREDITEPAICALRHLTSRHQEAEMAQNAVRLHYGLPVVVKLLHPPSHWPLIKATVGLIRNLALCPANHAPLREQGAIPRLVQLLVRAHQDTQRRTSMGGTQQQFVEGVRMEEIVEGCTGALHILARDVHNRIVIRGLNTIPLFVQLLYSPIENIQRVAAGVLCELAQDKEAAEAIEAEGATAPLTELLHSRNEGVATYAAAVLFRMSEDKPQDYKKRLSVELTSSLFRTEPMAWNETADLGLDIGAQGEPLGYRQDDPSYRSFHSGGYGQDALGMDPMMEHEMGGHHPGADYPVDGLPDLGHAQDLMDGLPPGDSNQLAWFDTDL

T2: B-cat-Halo (UniProt P35222 1-781, HaloTag NanoBRET 618 Ligand bound to the HaloTag in the assay)
T2 sequence (looked up): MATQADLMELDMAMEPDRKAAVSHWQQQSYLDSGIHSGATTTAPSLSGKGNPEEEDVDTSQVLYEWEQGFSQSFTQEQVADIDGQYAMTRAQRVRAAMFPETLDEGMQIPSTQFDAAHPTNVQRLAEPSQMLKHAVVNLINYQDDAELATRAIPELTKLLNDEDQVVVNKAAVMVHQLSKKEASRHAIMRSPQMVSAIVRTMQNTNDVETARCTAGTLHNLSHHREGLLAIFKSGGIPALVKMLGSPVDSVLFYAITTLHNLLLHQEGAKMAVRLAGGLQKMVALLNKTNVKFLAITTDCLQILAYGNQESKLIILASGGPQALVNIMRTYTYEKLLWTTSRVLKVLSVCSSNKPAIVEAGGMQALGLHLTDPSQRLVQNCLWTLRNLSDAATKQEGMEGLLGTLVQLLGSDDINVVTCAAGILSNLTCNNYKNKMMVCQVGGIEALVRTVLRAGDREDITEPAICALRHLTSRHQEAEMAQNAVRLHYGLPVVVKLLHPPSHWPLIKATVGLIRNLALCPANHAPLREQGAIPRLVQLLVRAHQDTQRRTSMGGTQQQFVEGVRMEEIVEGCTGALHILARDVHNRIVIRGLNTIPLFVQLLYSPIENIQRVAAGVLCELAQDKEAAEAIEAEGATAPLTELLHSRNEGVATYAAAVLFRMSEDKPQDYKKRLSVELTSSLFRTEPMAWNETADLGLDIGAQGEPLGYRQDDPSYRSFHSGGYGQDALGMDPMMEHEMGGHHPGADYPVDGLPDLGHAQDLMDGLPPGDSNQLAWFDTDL


These binders were tested against T1, B-cat-Halo (beta-catenin HaloTag fusion …) (assay: cell-based or functional assay).

Binder | NanoBRET Abs IC50
Ac-[αAllylPro]D[tBuAla][B5(4)]D[Phe(3-COOH)]AAFL[PyrS2″][Phe(2-CF3)][7FBztA]Q-NH2 (staple 1-4, 4-11) [I-2488] | 3.6 µM
Ac-[αAllylPro]D[tBuAla][B5(4)]D[Phe(3-COOH)]QAFL[PyrS2″][Phe(2-CF3)][4ClBztA]A-NH2 (staple 1-4, 4-11; reading uncertain) [I-2491] | 6.1 µM
Ac-[αAllylPro]D[tBuAla][B5]NT[Aib]AFN[PyrS2][3Thi][Bta][Me2Asn]-NH2 (staple 1-4, 4-11) [I-2494] | > 20 µM
Ac-[αAllylPro]N[Cha][B5]DQQAFL[PyrS2]F[Bta][MorphAsn]-NH2 (staple 1-4, 4-11) [I-2504] | > 20 µM
Ac-[αAllylPro]N[Cha][B5]DQ[MeGln]AFL[PyrS2]F[Bta][MorphAsn]-NH2 (staple 1-4, 4-11) [I-2502] | > 20 µM
Ac-[αAllylPro]D[tBuAla][B5(4)]NT[Ac5c]AFN[PyrS2″][3Thi][Bta]Q-NH2 (staple 1-4, 4-11) [I-2493] | > 20 µM
Ac-[αAllylPro]D[tBuAla][B5]NT[Aib]AFN[PyrS2][3Thi][Bta][MeAsn]-NH2 (staple 1-4, 4-11) [I-2495] | > 20 µM
Ac-[αAllylPro]D[tBuAla][B5(4)]D[Phe(3-COOH)]QAFL[PyrS2″][Phe(2-CF3)][7ClBztA]A-NH2 (staple 1-4, 4-11) [I-2487] | 4.2 µM
Ac-[αAllylPro]D[tBuAla][B5(4)]D[Phe(3-COOH)]AAFL[PyrS2″][Phe(2-CF3)][7ClBztA]Q-NH2 (staple 1-4, 4-11) [I-2486] | 3.7 µM
Ac-[αAllylPro]D[tBuAla][B6]D[Phe(3-COOH)]AAFL[PyrS1][Phe(2-CF3)][Bta]Q-NH2 (staple 1-4, 4-11) [I-2508] | 27.3 µM

Now from value to binder:

NanoBRET Abs IC50 | Binder
> 20 µM | Ac-[αAllylPro]D[tBuAla][B5(4)]NT[Ac3c]AFN[PyrS2″][3Thi][Bta]Q-NH2 (staple 1-4, 4-11) [I-2492]
> 20 µM | Ac-[αAllylPro]D[tBuAla][B5]NT[Aib]AF[MeAsn][PyrS2][3Thi][Bta]N-NH2 (staple 1-4, 4-11) [I-2497]
> 20 µM | Ac-[αAllylPro]N[Cha][B5]DQ[Me2Gln]AFL[PyrS2]F[Bta][MorphAsn]-NH2 (staple 1-4, 4-11) [I-2501]
7.4 µM | Ac-[αAllylPro]D[tBuAla][B5(4)]D[Phe(3-COOH)]QAFL[PyrS2″][Phe(2-CF3)][7FBztA]A-NH2 (staple 1-4, 4-11) [I-2489]
> 20 µM | Ac-[αAllylPro]D[tBuAla][B5]NT[Aib]AF[Me2Asn][PyrS2][3Thi][Bta]N-NH2 (staple 1-4, 4-11) [I-2496]

Each binder was assayed against T2, B-cat-Halo (assay: cell-based or functional assay).

NanoBRET Abs IC50 | Binder
22.9 µM | Ac-[αAllylPro]D[tBuAla][B5(3)]DDAAFN[PyrS2″][3Thi][Bta]QK(mPEG2)-NH2 (staple 1-4, 4-11; not fully specified; printed as Ac-PL3-Asp-Npg-B5-Asp-Asp-Ala-Ala-Phe-Asn-PyrS2-3Thi-BztA-Gln-[mPEG2]Lys-NH2) [I-911]
29.8 µM | Ac-[αAllylPro]D[tBuAla][B5(3)]DDAAFN[PyrS2″][3Thi][Bta]QK(Me2NCBz)-NH2 (staple 1-4, 4-11) [I-910]
